# Literature values, collected in paper PMC12469268.
# Assays:
# [1] = target: α1A-adrenoceptor (Homo sapiens) (UniProt P35348); assay: 3H-prazosin competition binding
# [2] = target: integrin αvβ3 (Homo sapiens) (UniProt P06756)
# [3] = target: α2B-adrenoceptor (Homo sapiens) (UniProt P18089)
# [4] = target: α2A-adrenoceptor (Homo sapiens) (UniProt P08913)
# [5] = target: α2C-adrenoceptor (Homo sapiens) (UniProt P18825)
substance,measurement,setting,value
AdTx1 (from UniProt P85092),Ki,[1],0.35 nM
CTX A5 (cardiotoxin A5) (from UniProt P62375),Kd,[2],300 nM
ρ-Da1b (from UniProt P86419),Ki,[3],73 nM
same,Ki,[4],14 nM
same,Ki,[5],38 nM
